# Measured values reported in article PMC9482650, “Quantitative fragmentomics allow affinity mapping of interactomes” (Nature Communications, 2022).
# T1: PDLIM3, Q53GG5
# T1 sequence (Q53GG5 1-94, limits assumed, looked up): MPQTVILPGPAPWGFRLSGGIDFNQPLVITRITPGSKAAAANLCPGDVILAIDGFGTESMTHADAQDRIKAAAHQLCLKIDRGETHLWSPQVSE
# T2: PDZD2_5, O15018
# T2 sequence (O15018 2617-2716, limits assumed, looked up): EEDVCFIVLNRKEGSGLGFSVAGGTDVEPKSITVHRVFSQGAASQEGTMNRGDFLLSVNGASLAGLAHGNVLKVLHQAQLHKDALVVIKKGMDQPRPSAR
# T3: TJP3_1, O95049
# T3 sequence (O95049 6-103, limits assumed, looked up): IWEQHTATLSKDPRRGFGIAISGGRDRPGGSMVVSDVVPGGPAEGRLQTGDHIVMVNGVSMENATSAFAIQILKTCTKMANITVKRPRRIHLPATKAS
# T4: NHERF1_2, O14745
# T4 sequence (O14745 149-244, limits assumed, looked up): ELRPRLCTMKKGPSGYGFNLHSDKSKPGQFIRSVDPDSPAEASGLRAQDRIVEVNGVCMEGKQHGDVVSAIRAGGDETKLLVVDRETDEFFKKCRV
# T5: LNX2_4, Q8N448
# T5 sequence (Q8N448 595-690, limits assumed, looked up): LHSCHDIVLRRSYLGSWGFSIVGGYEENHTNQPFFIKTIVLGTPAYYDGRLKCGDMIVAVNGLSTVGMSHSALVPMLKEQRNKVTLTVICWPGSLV
# T6: MPDZ_13, O75970
# T6 sequence (O75970 1982-2070, limits assumed, looked up): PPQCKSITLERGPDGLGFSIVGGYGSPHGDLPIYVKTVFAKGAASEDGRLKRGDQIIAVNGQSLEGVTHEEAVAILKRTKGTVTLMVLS
# T7: MLLT4, P55196
# T7 sequence (P55196 1002-1103, limits assumed, looked up): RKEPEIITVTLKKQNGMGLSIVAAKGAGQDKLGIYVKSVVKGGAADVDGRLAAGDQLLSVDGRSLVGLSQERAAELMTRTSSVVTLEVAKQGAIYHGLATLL
# T8: SIPA1L3, O60292
# T8 sequence (O60292 961-1052, limits assumed, looked up): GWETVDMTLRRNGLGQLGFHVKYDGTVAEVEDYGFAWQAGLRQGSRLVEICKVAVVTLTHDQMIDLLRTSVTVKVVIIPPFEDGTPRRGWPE
# T9: PREX2_2, Q70Z35
# T9 sequence (Q70Z35 672-764, limits assumed, looked up): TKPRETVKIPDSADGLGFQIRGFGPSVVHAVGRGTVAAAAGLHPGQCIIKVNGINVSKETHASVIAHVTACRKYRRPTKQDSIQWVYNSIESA
# T10: MPDZ_6, O75970
# T10 sequence (O75970 1003-1099, limits assumed, looked up): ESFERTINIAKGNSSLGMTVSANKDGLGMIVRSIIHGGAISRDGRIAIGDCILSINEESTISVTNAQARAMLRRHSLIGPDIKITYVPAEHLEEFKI
# T11: PDZD2_4, O15018
# T11 sequence (O15018 723-823, limits assumed, looked up): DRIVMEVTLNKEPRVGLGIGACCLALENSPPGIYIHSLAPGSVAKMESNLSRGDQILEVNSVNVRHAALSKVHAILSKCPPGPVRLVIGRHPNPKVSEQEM
# B1: DGKK, Q5KSL6 (peptide)
# chain: DPLTPSRSQL
# B2: PBK, Q96KB5 (peptide)
# chain: HIVEALETDV
# B3: ARHGEF16, Q5VV41 (peptide)
# chain: MERLRVETDV
# Target: T1, PDLIM3, Q53GG5
# Assay: holdup assay
# Design: key: below the threshold = too weak to quantify, mostly under pKd 3.1 to 4
# Settings: plain residues with an end cap or a label only (N-terminal biotin on a linker: ttds)
row,Binder,pKd
1,B1,below the threshold
2,B2,below the threshold
3,B3,below the threshold

# Target: T2, PDZD2_5, O15018
# Assay: holdup assay
# Design: key: below the threshold = too weak to quantify, mostly under pKd 3.1 to 4
# Settings: plain residues with an end cap or a label only (N-terminal biotin on a linker: ttds)
row,Binder,pKd
1,B1,below the threshold
2,B2,below the threshold
3,B3,below the threshold

# Target: T3, TJP3_1, O95049
# Assay: holdup assay
# Design: key: below the threshold = too weak to quantify, mostly under pKd 3.1 to 4
# Settings: plain residues with an end cap or a label only (N-terminal biotin on a linker: ttds)
row,Binder,pKd
1,B1,below the threshold
2,B2,below the threshold
3,B3,below the threshold

# Target: LMO7, Q8WWI1
# Assay: holdup assay
# Design: key: below the threshold = too weak to quantify, mostly under pKd 3.1 to 4
# Settings: plain residues with an end cap or a label only (N-terminal biotin on a linker: ttds)
# LMO7, Q8WWI1, sequence (Q8WWI1 1037-1138): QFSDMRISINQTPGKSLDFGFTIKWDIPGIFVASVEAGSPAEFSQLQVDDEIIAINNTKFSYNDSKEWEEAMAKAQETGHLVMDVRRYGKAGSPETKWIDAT
row,Binder,pKd
1,B1,below the threshold
2,B2,below the threshold
3,B3,below the threshold

# Target: T4, NHERF1_2, O14745
# Assay: holdup assay
# Design: key: below the threshold = too weak to quantify, mostly under pKd 3.1 to 4
# Settings: plain residues with an end cap or a label only (N-terminal biotin on a linker: ttds)
row,Binder,pKd
1,B1,below the threshold
2,B2,below the threshold
3,B3,below the threshold

# Target: T5, LNX2_4, Q8N448
# Assay: holdup assay
# Design: key: below the threshold = too weak to quantify, mostly under pKd 3.1 to 4
# Settings: plain residues with an end cap or a label only (N-terminal biotin on a linker: ttds)
row,Binder,pKd
1,B1,below the threshold
2,B2,below the threshold
3,B3,below the threshold

# Target: PARD3B_2, Q8TEW8
# Assay: holdup assay
# Design: key: below the threshold = too weak to quantify, mostly under pKd 3.1 to 4
# Settings: plain residues with an end cap or a label only (N-terminal biotin on a linker: ttds)
# PARD3B_2, Q8TEW8, sequence (Q8TEW8 376-471): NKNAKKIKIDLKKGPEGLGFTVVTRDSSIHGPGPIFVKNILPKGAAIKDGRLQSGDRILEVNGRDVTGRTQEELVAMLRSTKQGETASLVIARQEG
row,Binder,pKd
1,B1,below the threshold
2,B2,below the threshold
3,B3,below the threshold

# Target: T6, MPDZ_13, O75970
# Assay: holdup assay
# Design: key: below the threshold = too weak to quantify, mostly under pKd 3.1 to 4
# Settings: plain residues with an end cap or a label only (N-terminal biotin on a linker: ttds)
row,Binder,pKd
1,B1,below the threshold
2,B2,below the threshold
3,B3,below the threshold

# Target: TJP1_1, Q07157
# Assay: holdup assay
# Design: key: below the threshold = too weak to quantify, mostly under pKd 3.1 to 4
# Settings: plain residues with an end cap or a label only (N-terminal biotin on a linker: ttds)
# TJP1_1, Q07157, sequence (Q07157 18-120): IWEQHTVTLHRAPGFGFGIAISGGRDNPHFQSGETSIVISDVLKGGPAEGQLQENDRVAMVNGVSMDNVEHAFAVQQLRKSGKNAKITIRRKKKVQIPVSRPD
row,Binder,pKd
1,B1,below the threshold
2,B2,below the threshold
3,B3,below the threshold

# Target: Q96HC4
# Assay: holdup assay
# Design: key: below the threshold = too weak to quantify, mostly under pKd 3.1 to 4
# Settings: plain residues with an end cap or a label only (N-terminal biotin on a linker: ttds)
row,Binder,pKd
1,B1,below the threshold
2,B2,below the threshold
3,B3,below the threshold

# Target: T7, MLLT4, P55196
# Assay: holdup assay
# Design: key: below the threshold = too weak to quantify, mostly under pKd 3.1 to 4
# Settings: plain residues with an end cap or a label only (N-terminal biotin on a linker: ttds)
row,Binder,pKd
1,B1,below the threshold
2,B2,below the threshold
3,B3,below the threshold

# Target: O15021
# Assay: holdup assay
# Design: key: below the threshold = too weak to quantify, mostly under pKd 3.1 to 4
# Settings: plain residues with an end cap or a label only (N-terminal biotin on a linker: ttds)
row,Binder,pKd
1,B1,below the threshold
2,B2,below the threshold
3,B3,below the threshold

# Target: Q9UMS6
# Assay: holdup assay
# Design: key: below the threshold = too weak to quantify, mostly under pKd 3.1 to 4
# Settings: plain residues with an end cap or a label only (N-terminal biotin on a linker: ttds)
row,Binder,pKd
1,B1,below the threshold
2,B2,below the threshold
3,B3,below the threshold

# Target: Q5TCQ9
# Assay: holdup assay
# Design: key: below the threshold = too weak to quantify, mostly under pKd 3.1 to 4
# Settings: plain residues with an end cap or a label only (N-terminal biotin on a linker: ttds)
row,Binder,pKd
1,B1,below the threshold
2,B2,below the threshold
3,B3,below the threshold

# Target: T8, SIPA1L3, O60292
# Assay: holdup assay
# Design: key: below the threshold = too weak to quantify, mostly under pKd 3.1 to 4
# Settings: plain residues with an end cap or a label only (N-terminal biotin on a linker: ttds)
row,Binder,pKd
1,B1,below the threshold
2,B2,below the threshold
3,B3,below the threshold

# Target: Q8IUC4
# Assay: holdup assay
# Design: key: below the threshold = too weak to quantify, mostly under pKd 3.1 to 4
# Settings: plain residues with an end cap or a label only (N-terminal biotin on a linker: ttds)
row,Binder,pKd
1,B1,below the threshold
2,B2,below the threshold
3,B3,below the threshold

# Target: T9, PREX2_2, Q70Z35
# Assay: holdup assay
# Design: key: below the threshold = too weak to quantify, mostly under pKd 3.1 to 4
# Settings: plain residues with an end cap or a label only (N-terminal biotin on a linker: ttds)
row,Binder,pKd
1,B1,below the threshold
2,B2,below the threshold
3,B3,4.17

# Target: AHNAK2, Q8IVF2
# Assay: holdup assay
# Design: key: below the threshold = too weak to quantify, mostly under pKd 3.1 to 4
# Settings: plain residues with an end cap or a label only (N-terminal biotin on a linker: ttds)
# AHNAK2, Q8IVF2, sequence (Q8IVF2 108-193): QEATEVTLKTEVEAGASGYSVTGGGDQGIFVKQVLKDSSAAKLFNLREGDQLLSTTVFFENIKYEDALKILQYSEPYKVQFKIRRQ
row,Binder,pKd
1,B1,below the threshold
2,B2,below the threshold
3,B3,below the threshold

# Target: MAGI1_5, Q96QZ7
# Assay: holdup assay
# Design: key: below the threshold = too weak to quantify, mostly under pKd 3.1 to 4
# Settings: plain residues with an end cap or a label only (N-terminal biotin on a linker: ttds)
# MAGI1_5, Q96QZ7, sequence (Q96QZ7 986-1098): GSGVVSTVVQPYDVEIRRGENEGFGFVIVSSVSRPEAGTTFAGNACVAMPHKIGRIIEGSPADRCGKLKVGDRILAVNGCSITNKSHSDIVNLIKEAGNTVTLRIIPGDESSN
row,Binder,pKd
1,B1,below the threshold
2,B2,below the threshold
3,B3,below the threshold

# Target: LIMK1, P53667
# Assay: holdup assay
# Design: key: below the threshold = too weak to quantify, mostly under pKd 3.1 to 4
# Settings: plain residues with an end cap or a label only (N-terminal biotin on a linker: ttds)
# LIMK1, P53667, sequence (P53667 155-268): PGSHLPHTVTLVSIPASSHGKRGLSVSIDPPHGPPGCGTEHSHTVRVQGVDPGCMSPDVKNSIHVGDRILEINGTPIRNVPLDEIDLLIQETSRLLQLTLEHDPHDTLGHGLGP
row,Binder,pKd
1,B1,4.32
2,B2,4.63
3,B3,below the threshold

# Target: T10, MPDZ_6, O75970
# Assay: holdup assay
# Design: key: below the threshold = too weak to quantify, mostly under pKd 3.1 to 4
# Settings: plain residues with an end cap or a label only (N-terminal biotin on a linker: ttds)
row,Binder,pKd
1,B1,below the threshold
2,B2,below the threshold
3,B3,below the threshold

# Target: T11, PDZD2_4, O15018
# Assay: holdup assay
# Design: key: below the threshold = too weak to quantify, mostly under pKd 3.1 to 4
# Settings: plain residues with an end cap or a label only (N-terminal biotin on a linker: ttds)
row,Binder,pKd
1,B1,below the threshold
2,B2,below the threshold
3,B3,below the threshold

# Target: O43166
# Assay: holdup assay
# Design: key: below the threshold = too weak to quantify, mostly under pKd 3.1 to 4
# Settings: plain residues with an end cap or a label only (N-terminal biotin on a linker: ttds)
row,Binder,pKd
1,B1,below the threshold
2,B2,below the threshold
3,B3,below the threshold

# Target: Q13009
# Assay: holdup assay
# Design: key: below the threshold = too weak to quantify, mostly under pKd 3.1 to 4
# Settings: plain residues with an end cap or a label only (N-terminal biotin on a linker: ttds)
row,Binder,pKd
1,B1,below the threshold
2,B2,below the threshold
3,B3,below the threshold

# Target: PREX1_1, Q8TCU6
# Assay: holdup assay
# Design: key: below the threshold = too weak to quantify, mostly under pKd 3.1 to 4
# Settings: plain residues with an end cap or a label only (N-terminal biotin on a linker: ttds)
# PREX1_1, Q8TCU6, sequence (Q8TCU6 608-718): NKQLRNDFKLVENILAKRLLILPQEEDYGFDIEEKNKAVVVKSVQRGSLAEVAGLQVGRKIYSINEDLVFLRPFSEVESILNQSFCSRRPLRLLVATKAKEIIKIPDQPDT
row,Binder,pKd
1,B1,below the threshold
2,B2,below the threshold
3,B3,below the threshold

# Target: MAGI3_4, Q5TCQ9
# Assay: holdup assay
# Design: key: below the threshold = too weak to quantify, mostly under pKd 3.1 to 4
# Settings: plain residues with an end cap or a label only (N-terminal biotin on a linker: ttds)
# MAGI3_4, Q5TCQ9, sequence (Q5TCQ9 716-815): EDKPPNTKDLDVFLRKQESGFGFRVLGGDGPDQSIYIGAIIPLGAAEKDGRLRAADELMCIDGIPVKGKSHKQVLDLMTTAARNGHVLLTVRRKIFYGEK
row,Binder,pKd
1,B1,below the threshold
2,B2,below the threshold
3,B3,below the threshold
